The target in data set [1] is T1, His6-TyrR (Enterobacter cloacae UW5?) (UniProt B2D1S2).
T1 sequence: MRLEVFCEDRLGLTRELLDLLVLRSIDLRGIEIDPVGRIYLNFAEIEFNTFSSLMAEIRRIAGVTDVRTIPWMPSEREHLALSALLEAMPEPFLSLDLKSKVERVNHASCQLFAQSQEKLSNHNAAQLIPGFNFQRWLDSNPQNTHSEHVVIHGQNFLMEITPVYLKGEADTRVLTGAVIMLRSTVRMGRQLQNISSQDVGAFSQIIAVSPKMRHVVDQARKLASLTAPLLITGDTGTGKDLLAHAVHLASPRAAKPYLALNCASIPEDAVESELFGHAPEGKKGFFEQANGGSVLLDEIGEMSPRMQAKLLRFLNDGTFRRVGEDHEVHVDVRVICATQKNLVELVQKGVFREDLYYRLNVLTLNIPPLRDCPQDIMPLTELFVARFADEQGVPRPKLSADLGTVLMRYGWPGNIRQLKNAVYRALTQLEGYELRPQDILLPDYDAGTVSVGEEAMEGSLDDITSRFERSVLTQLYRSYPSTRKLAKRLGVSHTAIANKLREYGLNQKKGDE
The experiment in a line: EMSA. To be noted: 20% glycerol, 250 mM NaCl, 50 mM Tris-Cl pH 7.5, 5 mM MgCl2, 2.5 mM DTT, 2.5 mM EDTA, 0.1 mM ATP, 0.1 mM Trp, Phe or Tyr, 1 ug poly d(I-C), 50 ng DNA, room …. For orientation: A gel shift assay detects complexes by their altered migration in electrophoresis.

Data set [2] deals with T1, His6-TyrR (Enterobacter cloacae UW5?). As to the kind of experiment: competition. The note with it: 20% glycerol, 250 mM NaCl, 50 mM Tris-Cl pH 7.5, 5 mM MgCl2, 2.5 mM DTT, 2.5 mM EDTA, 0.1 mM ATP, 0.1 mM Trp, Phe or Tyr, 1 ug poly d(I-C), 50 ng DNA, room ….

The record followed here is article PMC4374768.

In the case of “GGTTCGCATAACAGGTGTCCTTCTGACGTTGACCTCACTTTGAGTATTAAAGAAGCGTGATGGCTGTCCAGAATTGGTCGTAAGAAGGGCATAGAAAGAATGCTTTATAAAAAAGGCTGCGCTATGCTCTTTTTTTTCATATAAATATAAACGTATATACTGATTTTTCCTTTCAGCGCCAGAGGGCATCAGAATGGG (double strand) [akr-ipdC double weak and strong box mutant]”, in data set [1], the binding entry is “no binding”.

With “GGTTCGCATAACAGGTGTCCTTCTGACGTTGACCTCACTTTGAGTATTAAAGAAGCGTGATGGCTGTCCAGAATTGGTCGTAAGAAGGGCATAGAAAGAATGCTTTATAAAAAAGGCTGCGCTATGCTCTTTTTTTTCATGTAAATGTAAACGTATACACTGATTTTTCCTTTCAGCGCCAGAGGGCATCAGAATGGG (double strand) [akr-ipdC strong box mutant]”, the binding result in data set [1] is listed as “binds more weakly”.

On to “GGTTCGCATAACAGGTGTCCTTCTGACGTTGACCTCACTTTGAGTATTAAAGAAGCGTGATGGCTGTCCAGAATTGGTCGTAAGAAGGGCATGGAAAGAATGCTTTACAAAAAAGGCTGCGCTATGCTCTTTTTTTTCATATAAATATAAACGTATATACTGATTTTTCCTTTCAGCGCCAGAGGGCATCAGAATGGG (double strand) [akr-ipdC weak box mutant]”, for which, in data set [1], the binding entry is reported as “binds”.

Regarding “GGTTCGCATAACAGGTGTCCTTCTGACGTTGACCTCACTTTGAGTATTAAAGAAGCGTGATGGCTGTCCAGAATTGGTCGTAAGAAGGGCATGGAAAGAATGCTTTACAAAAAAGGCTGCGCTATGCTCTTTTTTTTCATGTAAATGTAAACGTATACACTGATTTTTCCTTTCAGCGCCAGAGGGCATCAGAATGGG (double strand) [akr-ipdC intergenic region wild-type]”, the binding result in data set [1] and in data set [2] was “binds” each time.
